In article PMC10352329 (2023):
Changes are numbered by the printed parent chain. Numbers in names are those of the source. Where no end group is shown, it is not given here.

Legend:
[1] = target: 180-bp unmodified nucleosome (human, UniProt P04908 1-130; P68431 1-136; P62805 1-103); test: MST
[2] = target: T1, human p300BRP (residues 1048–1282), wild type (human, UniProt Q09472 1048-1282, fluorescently labeled with a His tag Labeling Kit (microscale thermophoresis only)); test: ITC
T1 chain: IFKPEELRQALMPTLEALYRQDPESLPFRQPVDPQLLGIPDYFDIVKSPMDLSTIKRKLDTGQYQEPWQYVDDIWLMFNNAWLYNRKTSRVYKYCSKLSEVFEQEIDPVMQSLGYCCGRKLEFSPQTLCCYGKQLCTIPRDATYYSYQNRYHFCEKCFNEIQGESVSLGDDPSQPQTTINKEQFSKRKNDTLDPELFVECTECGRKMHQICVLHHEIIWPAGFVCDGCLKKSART

[3] = target: N-terminal bromodomain of human BRD4 (residues 44–168) (human, UniProt O60885 44-168); test: ITC

B1: human p300BRP (residues 1048–1282), 4A-substituted mutant (R1133A, K1134A, R1137A, K1140A) (domain or fragment)
chain: T1 chain with R86A, K87A, R90A, K93A
modifications: fluorescently labeled with a His tag Labeling Kit (microscale thermophoresis)
For B1, the EC50 [1] was 0.0073 µM.

B2: di-acetylated H2B peptide K12ac/K15ac (peptide)
chain: PAPKK(Ac)GSK(Ac)KAVTK
Binder B2 has a Kd [2] greater than 500 µM.

B3: di-acetylated H2B peptide K20ac/K23ac (peptide)
chain: KAVTK(Ac)AQK(Ac)KDGK
Binder B3 has a Kd [3] greater than 500 µM.
